B1: 1B3: human anti-mouse PDGFRβ antibody from Fab phage display library, human κ/γ1 constant regions; SEQ ID NOS in Table 1 (antibody, listed as Homo sapiens, V domains shown)
VH: QVQLQESGGGLVKPGGSLRLSCAASGFTFSSYSMNWVRQAPGKGLEWVSSISSSSSYIYYADSVKGRFTISRDNSKNTLYLQMNSLRAEDTAVYYCAKGGRPLLVFDFWGQGTLVTVS
VL: EIVMTQSPGTLSLSPGERATLSCRASQSVSSSYLAWYQQKPGQAPRLLIYDASKRATGIPARFSGSGSGTDFTLTISTLESEDSAVYYCQQRGYWPPITFGQGTRLEIKR
modifications: human kappa/gamma1 constant regions
B2: 2C5: PDGFRβ-specific human antibody binding both human and murine PDGFRβ; SEQ ID NOS in Table 1 (antibody, listed as Homo sapiens, V domains shown)
VH: QVQLVQSGAEVKKPGSSVKVSCKASGGTFSSYAISWVRQAPGQGLEWMGRIIPILGIANYAQKFQGRVTITADKSTSTAYMELSSLRSEDTAVYYCARDMGSRNYYYFYWGQGTLVTVSS
VL: EIVLTQSPATLSLSPGERATLSCRASQSVGRYLAWYQQKPGQAPRLLIYGASNRATGIPARFSGSGSGTDFTLTISSLEPEDFAVYYCQQRSNWPLTFGGGTKVEIK

How the values were obtained:
[1] = tested on: Caki-1 kidney carcinoma xenograft; assay: Subcutaneous tumor xenograft model; type: in vivo, mouse
Protocol: (§1) Six xenograft models, SK-OV-3, OV-CAR-8, BxPC-3, OV-CAR-5, Caki-1 and NCI-H460 (A to F, respectively) were used to examine the effects of 1B3 on xenograft tumors in athymic nude mice. Mice with established tumors (˜250-300 mm^3) were randomly grouped and treated with 1B3, normal human IgG, or saline by intraperitoneal injection twice weekly (except for BxPC-3 model where the mice were treated three times a week) at the dose indicated. Tumor volumes were measured twice a week and are presented as mean±SEM. *1 indicates the loss of one mouse due to severe illness. 1B3 binds to mouse, but not human, PDGFRβ. Accordingly, the observed responses to treatment result from inhibition of stimulation of host cells.
(§2) Antitumor activity of anti-mPDGFRβ antibody in tumor xenograft models. Six human xenograft tumor models, including three ovarian carcinoma (SK-OV-3, OV-CAR-5 and OV-CAR-8), one pancreatic carcinoma (BxPC3), one lung carcinoma (NCI-H460), and one kidney carcinoma (Caki-1), were used to assess the antitumor activity of 1B3 in vivo. […] Tumor sizes and mouse body weight were measured twice a week. Tumor volume was calculated using the formula: π/6×(length×width^2), where length=longest diameter and width=diameter perpendicular to length. The ratio of average tumor volume in the treatment group versus that in the control group (T/C %) was calculated. […]

PDGFRβ in D122 cells = target: T1, PDGFRβ in D122 cells (Mus musculus, UniProt P05622); assay: PDGF-BB-stimulated receptor phosphorylation (Western blot); type: cell-based
T1 construct: endogenous in cells; host or cells: D122
T1 sequence (P05622 32-1098): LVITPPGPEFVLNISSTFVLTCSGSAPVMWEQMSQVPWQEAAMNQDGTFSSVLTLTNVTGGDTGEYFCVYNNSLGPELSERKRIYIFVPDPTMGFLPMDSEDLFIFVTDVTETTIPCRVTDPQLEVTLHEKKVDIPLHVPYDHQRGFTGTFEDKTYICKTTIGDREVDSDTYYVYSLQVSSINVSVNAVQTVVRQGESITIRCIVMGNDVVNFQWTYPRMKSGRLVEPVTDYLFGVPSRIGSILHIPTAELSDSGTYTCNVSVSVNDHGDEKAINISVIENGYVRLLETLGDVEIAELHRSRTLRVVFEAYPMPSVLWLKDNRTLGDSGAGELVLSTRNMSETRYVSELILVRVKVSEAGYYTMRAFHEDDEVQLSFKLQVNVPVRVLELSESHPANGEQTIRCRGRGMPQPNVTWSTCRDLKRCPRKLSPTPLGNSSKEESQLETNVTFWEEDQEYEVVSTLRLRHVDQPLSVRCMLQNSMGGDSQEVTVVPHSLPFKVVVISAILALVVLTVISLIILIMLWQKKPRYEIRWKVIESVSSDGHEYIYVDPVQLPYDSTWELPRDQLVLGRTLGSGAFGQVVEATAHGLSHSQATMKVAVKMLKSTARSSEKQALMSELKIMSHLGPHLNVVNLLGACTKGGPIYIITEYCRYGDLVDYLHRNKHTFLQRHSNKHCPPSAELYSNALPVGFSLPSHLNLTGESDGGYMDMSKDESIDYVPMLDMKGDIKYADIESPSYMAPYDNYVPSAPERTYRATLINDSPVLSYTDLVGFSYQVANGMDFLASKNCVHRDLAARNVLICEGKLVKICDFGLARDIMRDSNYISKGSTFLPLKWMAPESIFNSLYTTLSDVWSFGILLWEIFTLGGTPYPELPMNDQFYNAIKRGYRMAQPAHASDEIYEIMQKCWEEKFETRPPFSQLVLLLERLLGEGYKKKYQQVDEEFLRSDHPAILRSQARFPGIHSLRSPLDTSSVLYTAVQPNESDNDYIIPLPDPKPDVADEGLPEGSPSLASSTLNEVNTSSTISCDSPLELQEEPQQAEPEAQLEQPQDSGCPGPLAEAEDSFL
Protocol: (§3) Receptor phosphorylation was determined for NIH/3T3 and D122 cells. The cells were plated onto 6 cm dishes and grown to 70-80% confluence, after which the cells were washed twice in PBS and cultured overnight in serum free medium. […] The cells were lysed in lysis buffer (50 mM Tris-HCl, pH 7.4, 150 mM NaCl, 1% TritonX-100, 1 mM EDTA, 1 mM phenylmethylsulfonyl fluoride, 0.5 mM Na3VO4 1 μg/ml leupeptin, 1 μg/ml pepstatin, and 1 μg/ml aprotinin) for 1 h, followed by centrifugation of the lysate at 12,000 rpm for 10 min at 4° C. The receptors were immunoprecipitated from the cell lysate supernatant by an anti-mPDGFRβ antibody (R&D Systems Inc), followed by the addition of 20 μl of ProA/G-sepharose beads. The precipitated receptor proteins were resolved on a 4-12% NuPAGE Bis-Tris gel and transferred to a polyvinylidene difluoride membrane. Phospho-mPDGFRβ protein was detected on the blot using an anti-phospho-tyrosine antibody-HRP conjugate (Santa Cruz Biotech, Santa Cruz, Calif.). Total receptor proteins loaded on the gel were assayed with an antibody to mPDGFRβ.

PDGFRβ in NIH/3T3 cells = target: T2, PDGFRβ in NIH/3T3 cells (Mus musculus, UniProt P05622); assay: as above; type: cell-based
T2 construct: Receptor phosphorylation was determined for NIH/3T3 and D122 cells; endogenous in cells; host or cells: NIH/3T3
T2 sequence (P05622 32-1098): as above
Protocol: as §3

mouse PDGFRα = mouse PDGFRα (Mus musculus, UniProt P26618); assay: Binding to PDGFRα; details: data not shown
Chain of mouse PDGFRα (P26618 25-1089): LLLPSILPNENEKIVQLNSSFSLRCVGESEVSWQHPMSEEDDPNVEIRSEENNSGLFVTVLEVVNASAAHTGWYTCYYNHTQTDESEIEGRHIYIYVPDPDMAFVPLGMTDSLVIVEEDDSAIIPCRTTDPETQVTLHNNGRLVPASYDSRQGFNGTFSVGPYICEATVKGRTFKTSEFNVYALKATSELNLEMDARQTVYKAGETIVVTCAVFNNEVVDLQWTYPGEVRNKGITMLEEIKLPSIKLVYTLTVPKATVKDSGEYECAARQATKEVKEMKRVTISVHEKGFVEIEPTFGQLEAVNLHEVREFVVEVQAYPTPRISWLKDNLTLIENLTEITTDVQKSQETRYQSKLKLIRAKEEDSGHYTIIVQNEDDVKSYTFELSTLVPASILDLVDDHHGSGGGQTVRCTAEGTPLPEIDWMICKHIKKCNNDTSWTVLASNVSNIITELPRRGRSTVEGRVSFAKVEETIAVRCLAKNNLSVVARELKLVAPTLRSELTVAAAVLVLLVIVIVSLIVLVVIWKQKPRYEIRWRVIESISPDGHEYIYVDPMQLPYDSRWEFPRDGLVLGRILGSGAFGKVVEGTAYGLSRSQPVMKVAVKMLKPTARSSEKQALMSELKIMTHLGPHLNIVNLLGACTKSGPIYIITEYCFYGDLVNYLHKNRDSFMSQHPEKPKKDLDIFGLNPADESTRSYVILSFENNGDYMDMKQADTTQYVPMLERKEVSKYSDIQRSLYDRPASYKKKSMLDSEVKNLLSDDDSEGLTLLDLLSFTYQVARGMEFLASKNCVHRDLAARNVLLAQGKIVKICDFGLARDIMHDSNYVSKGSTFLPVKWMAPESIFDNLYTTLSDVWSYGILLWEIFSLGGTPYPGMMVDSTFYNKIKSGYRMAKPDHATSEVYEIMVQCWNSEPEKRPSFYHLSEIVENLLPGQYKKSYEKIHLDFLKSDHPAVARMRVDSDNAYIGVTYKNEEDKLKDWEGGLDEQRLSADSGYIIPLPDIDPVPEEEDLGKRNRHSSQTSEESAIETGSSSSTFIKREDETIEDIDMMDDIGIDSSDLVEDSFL

[2] = tested on: SK-OV-3 ovarian carcinoma xenograft; assay: Subcutaneous tumor xenograft model; type: in vivo, mouse
Protocol: as §1, §2

2β3α = assay: Epitope mapping, PDGFRβ/α chimera; type: binding; details: ✓ / X, key not given
Protocol: Various chimeric constructs of PDGFRβ and PDGFRα were first made by domain swapping, starting from N-terminus to C-terminus with PDGFRβ domain(s) replacing PDGFRα domain(s). The PDGFRβ/α chimera were tested for the ability of 2C5 binding. Shorter versions of PDGFRβ, including D1D2, D2D3 and D1D2D3, were then made to confirm the 2C5 binding domains on PDGFRβ.

| Molecule | antitumor activity ([1]; Caki-1, 40 mg/kg three times per week or 60 mg/kg twice weekly) | Tumor Volume T/C % ([1]; Caki-1 xenograft, monotherapy) | inhibition of PDGF-BB-stimulated receptor phosphorylation (PDGFRβ in D122 cells) | inhibition of PDGF-BB-stimulated receptor phosphorylation (PDGFRβ in NIH/3T3 cells) | binding to mouse PDGFRα (mouse PDGFRα) | tumor growth inhibition ([2]; 60 mg/kg i.p. twice weekly) | tumor growth inhibition ([2]; two lower doses (6, 20 mg/kg) i.p. twice weekly) | binding to 2β3α (2β3α) |
| --- | --- | --- | --- | --- | --- | --- | --- | --- |
| B1 | failed to show any antitumor activity | 65% | inhibited PDGF-BB-stimulated receptor phosphorylation in both NIH/3T3 and D122 cells in a dose dependent manner | inhibited PDGF-BB-stimulated receptor phosphorylation in both NIH/3T3 and D122 cells in a dose dependent manner | did not bind | completely blocked the tumor growth for up to 29 days | No tumor growth inhibition was observed |  |
| B2 |  |  |  |  |  |  |  | ✓ |

— patent US7740850B2, “PDGFRβ-specific antibodies” (ImClone, LLC, priority 2007, dated 2010)
